Biological target: Tle3^AIEC (type VI lipase effector 3 of adherent-invasive Escherichia coli LF82) (Escherichia coli AIEC LF82)
Test: SEC; purified Tle3 and Tli3 mixed at a molar ratio of 1:1.3; Superdex 200 16/60 in Hepes 10 mM pH 6.8, NaCl 150 mM; apparent molecular mass 100 kDa against a theoretical 101.9 kDa

“Tli3^AIEC (type VI lipase immunity protein 3 of adherent-invasive Escherichia coli LF82) (natural protein)” showed a stoichiometry N of 1.

From article PMC9860674
